The target in assay [1] is clock_mouse Clock (UniProt O08785).
Assay [2] shares this target. This is another data set of the same source.
Assay [3] shares this target. The source holds these as a separate data set.

Sequence of clock_mouse Clock (O08785 whole entry): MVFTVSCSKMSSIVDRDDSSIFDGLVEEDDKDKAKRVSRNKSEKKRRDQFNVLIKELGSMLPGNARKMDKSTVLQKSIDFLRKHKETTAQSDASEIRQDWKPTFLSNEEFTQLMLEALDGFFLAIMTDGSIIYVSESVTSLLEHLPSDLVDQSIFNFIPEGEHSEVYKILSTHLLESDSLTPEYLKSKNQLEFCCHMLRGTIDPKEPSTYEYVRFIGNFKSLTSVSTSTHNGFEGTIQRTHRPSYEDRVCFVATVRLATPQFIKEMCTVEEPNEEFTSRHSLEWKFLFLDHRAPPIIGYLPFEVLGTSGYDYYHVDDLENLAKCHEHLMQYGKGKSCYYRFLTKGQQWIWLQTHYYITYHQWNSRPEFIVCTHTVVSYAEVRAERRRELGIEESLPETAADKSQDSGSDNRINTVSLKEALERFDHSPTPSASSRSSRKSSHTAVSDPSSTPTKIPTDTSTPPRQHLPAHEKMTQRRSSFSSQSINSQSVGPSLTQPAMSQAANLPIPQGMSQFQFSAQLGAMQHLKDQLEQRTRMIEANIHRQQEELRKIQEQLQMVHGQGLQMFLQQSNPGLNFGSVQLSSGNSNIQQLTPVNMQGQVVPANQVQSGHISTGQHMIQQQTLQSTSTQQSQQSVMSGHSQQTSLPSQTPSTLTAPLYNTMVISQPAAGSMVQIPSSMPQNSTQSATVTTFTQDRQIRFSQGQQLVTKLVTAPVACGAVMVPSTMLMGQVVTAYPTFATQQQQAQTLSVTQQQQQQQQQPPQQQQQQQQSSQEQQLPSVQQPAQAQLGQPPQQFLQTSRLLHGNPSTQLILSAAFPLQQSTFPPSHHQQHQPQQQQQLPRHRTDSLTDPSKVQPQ
Sequence of Basic helix-loop-helix ARNT-like protein 1 (Mus musculus), Q9WTL8-4 V435R (Q9WTL8 other isoform, or with tags, fused parts or gaps V435R): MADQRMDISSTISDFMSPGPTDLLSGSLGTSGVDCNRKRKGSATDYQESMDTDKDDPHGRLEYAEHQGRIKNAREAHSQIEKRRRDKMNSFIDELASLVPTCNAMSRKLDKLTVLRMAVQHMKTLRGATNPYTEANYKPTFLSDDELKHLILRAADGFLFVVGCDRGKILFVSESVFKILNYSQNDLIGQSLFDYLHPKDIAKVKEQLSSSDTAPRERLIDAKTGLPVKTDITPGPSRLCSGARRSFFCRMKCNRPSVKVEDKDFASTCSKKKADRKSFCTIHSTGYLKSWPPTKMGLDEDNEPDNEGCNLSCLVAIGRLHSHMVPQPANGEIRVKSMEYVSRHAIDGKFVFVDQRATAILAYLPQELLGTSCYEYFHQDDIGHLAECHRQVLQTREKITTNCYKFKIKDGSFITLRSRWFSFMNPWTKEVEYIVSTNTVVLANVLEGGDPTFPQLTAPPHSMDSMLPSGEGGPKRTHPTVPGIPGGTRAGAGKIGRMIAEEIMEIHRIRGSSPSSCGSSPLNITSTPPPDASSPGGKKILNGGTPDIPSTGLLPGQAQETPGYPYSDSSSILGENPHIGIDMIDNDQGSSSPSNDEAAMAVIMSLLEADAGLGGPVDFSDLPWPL
Sequence of Basic helix-loop-helix ARNT-like protein 1 (Mus musculus), Q9WTL8-4 F423R;V435R (Q9WTL8 other isoform, or with tags, fused parts or gaps F423R;V435R): as the sequence (Q9WTL8 other isoform, or with tags, fused parts or gaps V435R) above
Sequence of Basic helix-loop-helix ARNT-like protein 1 (Mus musculus), Q9WTL8-4 L95E (Q9WTL8 other isoform, or with tags, fused parts or gaps L95E): as the sequence (Q9WTL8 other isoform, or with tags, fused parts or gaps V435R) above
Sequence of Basic helix-loop-helix ARNT-like protein 1 (Mus musculus), Q9WTL8-4 F423R (Q9WTL8 other isoform, or with tags, fused parts or gaps F423R): as the sequence (Q9WTL8 other isoform, or with tags, fused parts or gaps V435R) above
Sequence of Basic helix-loop-helix ARNT-like protein 1 (Mus musculus), Q9WTL8-4 L95E;L150E;W427A (Q9WTL8 other isoform, or with tags, fused parts or gaps L95E;L150E;W427A): as the sequence (Q9WTL8 other isoform, or with tags, fused parts or gaps V435R) above
Sequence of Basic helix-loop-helix ARNT-like protein 1 (Mus musculus), Q9WTL8-4 L150E (Q9WTL8 other isoform, or with tags, fused parts or gaps L150E): as the sequence (Q9WTL8 other isoform, or with tags, fused parts or gaps V435R) above
Sequence of Basic helix-loop-helix ARNT-like protein 1 (Mus musculus), Q9WTL8-4 I317D (Q9WTL8 other isoform, or with tags, fused parts or gaps I317D): as the sequence (Q9WTL8 other isoform, or with tags, fused parts or gaps V435R) above
Sequence of Basic helix-loop-helix ARNT-like protein 1 (Mus musculus), Q9WTL8-4 W427A (Q9WTL8 other isoform, or with tags, fused parts or gaps W427A): as the sequence (Q9WTL8 other isoform, or with tags, fused parts or gaps V435R) above
Sequence of Basic helix-loop-helix ARNT-like protein 1 (Mus musculus), Q9WTL8-4 L115E (Q9WTL8 other isoform, or with tags, fused parts or gaps L115E): as the sequence (Q9WTL8 other isoform, or with tags, fused parts or gaps V435R) above

With “Basic helix-loop-helix ARNT-like protein 1 (Mus musculus), Q9WTL8-4 F423R”, the “effect of a mutation on the interaction” value with clock_mouse Clock [1] is “decreasing interaction strength”; with clock_mouse Clock [2], “with no effect”.

In the case of “Basic helix-loop-helix ARNT-like protein 1 (Mus musculus), Q9WTL8-4 F423R;V435R”, the “effect of a mutation on the interaction” value was “disrupting interaction strength” with clock_mouse Clock [1] and “decreasing interaction strength” in the assay with clock_mouse Clock [2]. With “Basic helix-loop-helix ARNT-like protein 1 (Mus musculus), Q9WTL8-4 I317D”, the “effect of a mutation on the interaction” value in the assay with clock_mouse Clock [1] is listed as “decreasing interaction strength”; with clock_mouse Clock [2], “disrupting interaction strength”.

Consider “Basic helix-loop-helix ARNT-like protein 1 (Mus musculus), Q9WTL8-4 L95E”, for which the results for the “effect of a mutation on the interaction” value with clock_mouse Clock [1] and with clock_mouse Clock [2] were “with no effect” and “disrupting interaction strength”, respectively. Regarding “Basic helix-loop-helix ARNT-like protein 1 (Mus musculus), Q9WTL8-4 L95E;L150E;W427A”, the “effect of a mutation on the interaction” value in the assay with clock_mouse Clock [1] and in the assay with clock_mouse Clock [2] was “disrupting interaction strength” throughout.

As for “Basic helix-loop-helix ARNT-like protein 1 (Mus musculus), Q9WTL8-4 L115E”, in the assay with clock_mouse Clock [2], the “effect of a mutation on the interaction” value is “disrupting interaction strength”.

For the substance “Basic helix-loop-helix ARNT-like protein 1 (Mus musculus), Q9WTL8-4 L150E”, the “effect of a mutation on the interaction” value is listed as “decreasing interaction strength” with clock_mouse Clock [3] and “with no effect” with clock_mouse Clock [2]. “Basic helix-loop-helix ARNT-like protein 1 (Mus musculus), Q9WTL8-4 V435R”: the figures for the “effect of a mutation on the interaction” value with clock_mouse Clock [1] and with clock_mouse Clock [2] were “disrupting interaction strength” and “with no effect”, respectively.

For the substance “Basic helix-loop-helix ARNT-like protein 1 (Mus musculus), Q9WTL8-4 W427A”, the “effect of a mutation on the interaction” value in the assay with clock_mouse Clock [1] is reported as “with no effect”; with clock_mouse Clock [2] it was “decreasing interaction strength”.

Source of the values: IntAct's records for PubMed 22653727.
